We go through 1 molecule from patent US20240076386A1 (Pfizer, published 2024).

As usually defined, the EC50 is the midpoint of the concentration-response curve. High values mean a need for much substance, low ones an effect from little substance. In general, Kd refers to a measure of binding affinity in units of concentration. A high value points to weaker binding. Broadly, the koff is a measure of how fast the partners let go of each other. A lower koff goes with slow dissociation. As a reminder, the kon is the second-order rate constant of association. A low value points to slower complex formation. Broadly, the t½ is the time in which the quantity being followed falls by half. The low end stands for rapid decline, the high end for slow decline.

Assay [1] concerns the target T1, mouse E-selectin extracellular domain with 10 His purification tail (mouse, UniProt Q00690 22-557).
T1 construct: also called soluable mouse E-selectin extracellular domain; muE-Selctin
T1 sequence: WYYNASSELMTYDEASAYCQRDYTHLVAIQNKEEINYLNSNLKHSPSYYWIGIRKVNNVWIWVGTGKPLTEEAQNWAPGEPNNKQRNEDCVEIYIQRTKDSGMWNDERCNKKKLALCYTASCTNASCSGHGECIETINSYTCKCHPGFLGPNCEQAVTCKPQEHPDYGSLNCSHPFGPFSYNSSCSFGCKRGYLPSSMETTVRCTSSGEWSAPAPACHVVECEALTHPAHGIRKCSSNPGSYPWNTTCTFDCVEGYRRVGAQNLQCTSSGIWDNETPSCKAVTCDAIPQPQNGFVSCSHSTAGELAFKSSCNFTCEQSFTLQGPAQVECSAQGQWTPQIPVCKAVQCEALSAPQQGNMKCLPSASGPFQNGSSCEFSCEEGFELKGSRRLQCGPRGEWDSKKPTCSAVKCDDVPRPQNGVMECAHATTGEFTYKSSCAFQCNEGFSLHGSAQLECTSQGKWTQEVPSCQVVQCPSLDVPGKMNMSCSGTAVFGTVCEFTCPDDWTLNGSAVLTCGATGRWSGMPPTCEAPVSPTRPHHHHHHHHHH
Description: AlphaLISA competition vs sialyl Lewis A-PAA-biotin. Here is the method:
The neutralization ability of anti-E-selectin antibodies was measured in an AlphaLISA homogenous competition assay. […] This was incubated at room temperature for 15 minutes, followed by addition of 1.4 μL of human, mouse or cynomolgus monkey E-selectin added to a final concentration of 7 nM. This was again incubated at room temperature for 15 minutes. To this, 1.4 μL AlphaLISA beads was added (Ni-donor/SA-acceptor) for a final assay concentration of 10 μg/mL. This was incubated in the dark at room temperate for at least 10 hours. The plates were then read using the AlphaLISA protocol (Envision).
For orientation: Alpha assays give light when donor and acceptor beads are brought close together.

For assay [2], the target named is T1, mouse E-selectin extracellular domain …. Briefly: antigen binding ELISA, HRP detection. As to the method:
384-well Maxisorp plates were used to capture the human and mouse His-tagged recombinant E-selectin polypeptides. The polypeptides were incubated with chimeric antibodies of varying concentrations and detected with HRP-labeled anti-human IgG1 antibodies.
For orientation: An ELISA detects its analyte on a solid surface through an enzyme-linked reagent.

The target is the same in assay [3]. Description: SPR, antibody captured, E-selectin analyte. Here is the method: To characterize binding of antibodies to human, cynomolgus monkey, and mouse E-selectin, an antibody was diluted to 0.5 μg/mL in HBS-EP+ and captured by the anti-human IgG immobilized on flow cells 2, 3 and 4 for 30 seconds to 1 minute at a flow rate of 10 μL/minute to achieve a capture level of 70 to 300 RU. Flow cell 1 was used as a reference surface. […] HBS-EP+ buffer cycles collected for each captured antibody were used for double-referencing (Myszka D G. J. Mol. Recognition 1999; 12(5):279-84). At the end of each cycle, the entire anti-IgG surface was regenerated by a 30 second pulse of 3 M MgCl₂ and a 30 second pulse of ionic buffer (1.83 M MgCl₂, 0.92 M Urea, 1.83 M Guanidine HCl, pH 7.4) (Andersson K. Analy. Chem. 1999; 71(13): 2475-81). Kinetic assays were conducted at 25° C. at a collection rate of 10 Hertz (Hz) on a BIAcore™ T200 instrument (GE Healthcare). Rate constants and affinities were determined by fitting the data to a 1:1 binding model in BIAcore™ T200 Evaluation software version 3.0 (GE Healthcare).
(In general: Surface plasmon resonance follows binding to a sensor surface in real time, without labels.)

B1: anti-E-selectin antibody 0027 chimera (antibody, human IgG1, kappa, V domains shown)
VH: EVHLHQSGPELGRPGSSVKISCKASGYTFTDYVMNWVRQSPGQGLEWIGWINPEDYSFDSGEKFLERATLTAATSSNTVYIQLSGLTSDDTATYFCVRGGLPGDWFAYWGQGTLVTVSS
VL: DIQMTQSPSFLSASVGDRITINCKTSQNINRYLNWFQQKLGEPPKLLIYNANSLQADIPSRFSGSGSGTDFTLTITSLQPEDVATYFCLQHHFWPYTFGAGTKLELRR
notes: rat VH/VL on effector-null human IgG1 (L234A, L235A, G237A, EU) and human kappa; directed to mouse E-selectin
For the molecule B1, the EC50 in assay [1] is 1 nM. In assay [2], a half-maximal response (EC50) required 0.02 nM. In assay [3], the Kd stood at 1.2 nM, the koff stood at 0.000231 s⁻¹, the kon amounted to 192000 M⁻¹ s⁻¹ and the t½ is 50.2 min.
